Target: hemocyanin from Fissurella latimarginata (Fissurella latimarginata)
Assay: negative-stain transmission electron microscopy; purified FLH 100 µg/ml on parlodion-coated copper grid, stained with 1-2% aqueous uranyl acetate, 80 kV; quaternary structure of the assembled protein

- stoichiometry N: 20 subunits
Substance: hemocyanin from Fissurella latimarginata (natural protein)

From article PMC3900722
